Data on 1 molecule can be found in US20240132624A1.

Test [1] concerns the target human FcRn/b2M (human) (UniProt P61769). Kind of test: SPR pH 7.4.
The target is the same in test [2]. Kind of test: SPR; pH 7.4 vs pH 6.0.
Test [3] shares this target. Nature of the test: SPR pH 6.0.

Sequence of human FcRn/b2M (human) (chain, as listed by the source limits assumed, chain 1 of 2): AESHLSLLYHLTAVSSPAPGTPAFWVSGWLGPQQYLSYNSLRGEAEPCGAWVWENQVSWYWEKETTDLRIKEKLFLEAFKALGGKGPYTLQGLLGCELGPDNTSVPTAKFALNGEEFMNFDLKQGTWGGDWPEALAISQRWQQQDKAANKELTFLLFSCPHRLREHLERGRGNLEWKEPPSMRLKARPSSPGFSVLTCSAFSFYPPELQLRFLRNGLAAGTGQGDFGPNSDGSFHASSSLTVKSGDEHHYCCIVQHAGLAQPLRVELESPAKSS
Sequence of human FcRn/b2M (human) (P61769 21-119 limits assumed, chain 2 of 2): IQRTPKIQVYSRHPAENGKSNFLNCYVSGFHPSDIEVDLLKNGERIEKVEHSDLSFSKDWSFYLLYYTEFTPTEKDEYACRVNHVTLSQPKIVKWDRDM

B1: T0263018B11 bivalent (VHH, part only; not given: linker, not shown: small tags and cut ends)
chain, part: EVQLVESGGGVVQPGGSLRLSCAASGFTFSSYAMYWVRQAPGKGLEWVSAISSGGGSTDYADSVKGRFTISRDNSKNTLYLQMNSLRPEDTALYYCAADTLYTSLTWYSYWGQGTLVTVSSEVQLVESGGGVVQPGGSLRLSCAASGFTFSSYAMYWVRQAPGKGLEWVSAISSGGGSTDYADSVKGRFTISRDNSKNTLYLQMNSLRPEDTALYYCAADTLYTSLTWYSYWGQGTLVTVSS
As usually defined, the Kd is a measure of binding affinity in units of concentration. The low end stands for tighter binding, the high end for weaker binding. With B1, the Kd in the test with human FcRn/b2M (human) [1] came out at 1000 nM; in the test with human FcRn/b2M (human) [3] it was 19 nM. The KD ratio pH 7.4/6.0 in the test with human FcRn/b2M (human) [2] is 54.
